Test results published in US20030119102A1 (Takeda / Millennium, published 2003).

B1: rat 29x (other)
chain: ARLPAPEHARQQPLLSGPEPGSSARVPVPGVASRRQPRGGKPPSGDGLESGPSPRPLLHARGEAGLHRQSGRVPHTGTAYFADEPTEAQAPGGFCVSPSLLGVRWPACATRTPGSLPLSPPSAQPRTLWPTPPAGPSSRMVARNQVAADNAISPASEPRRRPEPSSSSSSSSPAAPARPRPCPVVPAPAPGDTHFRTFRSHSDYRRITRTSALLDACGFYWGPLSVHGAHERLRAEPVGTFLVRDSRQRNCFFALSVKMASGPTSIRVHFQAGRFHLDGSRETFDCLFELLEHYVAAPRRMLGAPLRQRRVRPLQELCRQRIVAAVGRENLARIPLNPVLRDYLSSFPFQI
notes: Two-hybrid prey; also called SOCS-1; JAB
B2: KChIP3 of rat brain membranes (other, UniProt Q9JM47 1-256, looked up)
chain: MQRTKEAMKASDGSLLGDPGRIPLSKREGIKWQRPRFTRQALMRCCLIKWILSSAAPQGSDSSDSELELSTVRHQPEGLDQLQAQTKFTKKELQSLYRGFKNECPTGLVDEDTFKLIYSQFFPQGDATTYAHFLFNAFDADGNGAIHFEDFVVGLSILLRGTVHEKLKWAFNLYDINKDGYITKEEMLAIMKSIYDMMGRHTYPILREDAPLEHVERFFQKMDRNQDGVVTIDEFLETCQKDENIMSSMQLFENVI
notes: also called PCIPs (KChIPs 1, 2, and 3)
B3: rat 7q (other)
chain: MAYAYLFKYIIIGDTGVGKSCLLLQFTDKRFQPVHDLTIGVEFGARMITIDGKQIKLQIWDTAGQESFRSITRSYYRGAAGALLVYDITRRDTFNHLTTWLEDARQHSNSNMVIMLIGNKSDLESRREVKKEEGEAFAREHGLIFMETSAKTASNVEEAFINTAKEIYEKIQEGVFDINNEANGIKIGPQHAATNASHGGNQGGQQAGGGCC
notes: Two-hybrid prey; The full length was obtained by RACE PCR; also called RAB2
B4: rat 9qm (other)
chain: MRGQGRKESLSESRDLDGSYDQLTGHPPGPSKKALKQRFLKLLPCCGPQALPSVSENSVEDEFELSTVCHRPEGLEQLQEQTKFTRRELQVLYRGFKNECPSGIVNEENFKQIYSQFFPQGDSSNYATFLFNAFDTNHDGSVSFEDFVAGLSVILRGTIDDRLSWAFNLYDLNKDGCITKEEMLDIMKSIYDMMGKYTYPALREEAPREHVESFFQKMDRNKDGVVTIEEFIESCQQDENIMRSMQLFDNVI
B5: rat 33b07 (other)
chain: MNGVEGNNELPLANTSTSALVPEDLDLKQDQPLSEETDTVREMEAAGEAGAEGGASPDSEHCDPQLCLRVAENGCAAAAGEGLEDGLSSSKCGDAPLASVAANDSNKNGCQLAGPLSPAKPKTLEASGAVGLGSQMMPGPKKTKVMTTKGAISATTGKEGEAGAAMQEKKGVQKEKKAAGGGKDETRPRAPKINNCMDSLEAIDQELSNVNAQADRAFLQLERKFGRMRRLHMQRRSFIIQNIPGFWVTAFRNHPQLSPMISGQDEDMMRYMINLEVEELKHPRAGCKFKFIFQSNPYFRNEGLVKEYERRSSGRVVSLSTPIRWHRGQEPQAHIHRNREGNTIPSFFNWFSDHSLLEFDRIAEIIKGELWSNPLQYYLMGDGPRRGVRVPPRQPVESPRSFRFQSG
notes: also called partial rat 33b07 (clone name 9o)
B6: rat 5p (other)
chain: MPSQMEHAMETMMLTFHRFAGEKNYLTKEDLRVLMEREFPGFLENQKDPLAVDKIMKDLDQCRDGKVGFQSFLSLVAGLIIACNDYFVVHMKQKK
notes: Two-hybrid prey; also called Calpactin I light chain; P10
B7: rKv1.1N (other, rat, UniProt P10499 1-164, looked up)
chain: MTVMSGENADEASAAPGHPQDGSYPRQADHDDHECCERVVINISGLRFETQLKTLAQFPNTLLGNPKKRMRYFDPLRNEYFFDRNRPSFDAILYYYQSGGRLRRPVNVPLDMFSEEIKFYELGEEAMEKFREDEGFIKEEERPLPEKEYQRQVWLLFEYPESSG
notes: Bait of the specificity test; the construct is not described; also called Kv1.1 subunits; rKvl.iN
B8: rat 1v (other)
chain: MPARVLLAYPGTEMLTQGESEGLQTLGIVVVLCSSLKLLHYLGLIDLSDDKIEDDLEMTMVCHRPEGLEQLEAQTNFTKRELQVLYRGFKNECPSGVVNEETFKQIYAQFFPHGDASTYAHYLFNAFDTTQTGSVKFEDFVTALSILLRGTVHEKLRWTFNLYDINKDGYINKEEMMDIVKAIYDMMGKYTYPVLKEDTPRQHVDVFFQKMDKNKDGIVTLDEFLESCQEDDNIMRSLQLFQNVM
notes: also called KChIP1; KchIP1
B9: KChIP2 of rat brain membranes (other, UniProt Q9JM59 1-270, looked up)
chain: MRGQGRKESLSESRDLDGSYDQLTGHPPGPSKKALKQRFLKLLPCCGPQALPSVSETLAAPASLRPHRPRPLDPDSVEDEFELSTVCHRPEGLEQLQEQTKFTRRELQVLYRGFKNECPSGIVNEENFKQIYSQFFPQGDSSNYATFLFNAFDTNHDGSVSFEDFVAGLSVILRGTIDDRLSWAFNLYDLNKDGCITKEEMLDIMKSIYDMMGKYTYPALREEAPREHVESFFQKMDRNKDGVVTIEEFIESCQQDENIMRSMQLFDNVI
notes: as for B2

Tests used:
[1] = target: B7; assay: yeast two-hybrid
[2] = target: T1, Kv2.1 (rat brain membranes) (rat, UniProt P15387 1-857); assay: co-immunoprecipitation from rat brain synaptic membranes
T1 sequence (looked up): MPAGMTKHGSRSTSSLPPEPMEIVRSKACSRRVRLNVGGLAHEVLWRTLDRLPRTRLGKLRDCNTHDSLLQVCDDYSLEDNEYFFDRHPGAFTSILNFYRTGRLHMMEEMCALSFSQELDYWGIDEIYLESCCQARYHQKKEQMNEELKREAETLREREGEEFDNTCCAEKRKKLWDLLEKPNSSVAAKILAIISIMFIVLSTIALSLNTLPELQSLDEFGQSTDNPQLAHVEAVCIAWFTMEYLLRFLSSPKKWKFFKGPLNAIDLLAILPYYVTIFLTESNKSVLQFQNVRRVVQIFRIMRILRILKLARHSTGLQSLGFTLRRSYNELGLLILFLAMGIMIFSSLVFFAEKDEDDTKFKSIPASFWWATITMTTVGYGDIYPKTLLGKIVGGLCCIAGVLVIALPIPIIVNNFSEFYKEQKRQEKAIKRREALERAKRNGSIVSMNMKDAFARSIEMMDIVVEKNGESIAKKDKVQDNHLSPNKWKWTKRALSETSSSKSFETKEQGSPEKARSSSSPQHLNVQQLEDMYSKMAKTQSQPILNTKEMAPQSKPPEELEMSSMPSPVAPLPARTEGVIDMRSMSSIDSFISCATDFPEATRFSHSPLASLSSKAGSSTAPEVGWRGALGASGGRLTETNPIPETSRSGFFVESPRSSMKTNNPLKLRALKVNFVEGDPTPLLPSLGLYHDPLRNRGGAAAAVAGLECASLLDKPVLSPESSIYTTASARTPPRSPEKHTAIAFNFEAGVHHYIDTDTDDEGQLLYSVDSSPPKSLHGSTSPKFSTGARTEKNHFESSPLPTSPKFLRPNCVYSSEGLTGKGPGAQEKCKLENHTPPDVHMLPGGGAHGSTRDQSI

[3] = target: T2, rat Kv4.2 α-subunit (rat, UniProt Q63881 1-630); assay: immunoprecipitation from rat brain membranes
T2 construct: whole, on cells; also called rKv4.2
T2 sequence (looked up): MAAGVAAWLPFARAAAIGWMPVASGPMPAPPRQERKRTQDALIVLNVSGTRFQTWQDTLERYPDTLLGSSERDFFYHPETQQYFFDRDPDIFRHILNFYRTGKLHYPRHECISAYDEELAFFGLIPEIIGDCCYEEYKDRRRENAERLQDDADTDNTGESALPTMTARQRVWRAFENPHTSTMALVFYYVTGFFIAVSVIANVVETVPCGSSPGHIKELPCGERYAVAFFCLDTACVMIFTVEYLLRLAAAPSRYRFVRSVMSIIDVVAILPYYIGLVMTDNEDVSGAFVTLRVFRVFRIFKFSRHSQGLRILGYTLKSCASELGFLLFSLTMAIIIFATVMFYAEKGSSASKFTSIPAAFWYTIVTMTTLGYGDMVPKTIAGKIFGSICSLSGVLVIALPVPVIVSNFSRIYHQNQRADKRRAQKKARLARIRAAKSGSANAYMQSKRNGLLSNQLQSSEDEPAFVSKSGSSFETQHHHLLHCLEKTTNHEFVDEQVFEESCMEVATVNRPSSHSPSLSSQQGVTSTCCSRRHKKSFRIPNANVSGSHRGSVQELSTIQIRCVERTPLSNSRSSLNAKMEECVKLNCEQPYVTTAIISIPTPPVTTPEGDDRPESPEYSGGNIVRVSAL

[4] = target: T3, rat 1p (rat, UniProt B9EHT4 181-427 (mouse entry), limits assumed); assay: yeast two-hybrid
T3 construct: Partial-length clone, two-hybrid prey; also called Ip; lp
T3 sequence: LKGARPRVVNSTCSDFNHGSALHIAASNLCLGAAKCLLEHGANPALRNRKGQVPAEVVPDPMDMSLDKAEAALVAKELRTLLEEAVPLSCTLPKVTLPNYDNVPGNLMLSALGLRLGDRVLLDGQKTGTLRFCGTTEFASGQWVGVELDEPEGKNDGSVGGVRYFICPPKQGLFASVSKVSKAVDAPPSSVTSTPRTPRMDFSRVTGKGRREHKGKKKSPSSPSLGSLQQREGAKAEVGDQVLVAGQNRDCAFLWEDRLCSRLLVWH

[5] = target: T4, rat 7s (rat, UniProt P50516 348-617 (mouse entry), limits assumed); assay: yeast two-hybrid
T4 construct: Partial-length clone, two-hybrid prey; Rat ortholog of the vacuolar H(+)-ATPase catalytic subunit A

[6] = target: T5, rat 19r (rat, UniProt P16446 1-271, limits assumed); assay: yeast two-hybrid
T5 construct: also called partial rat 19r; phosphatidylinositol transfer protein alpha
T5 sequence: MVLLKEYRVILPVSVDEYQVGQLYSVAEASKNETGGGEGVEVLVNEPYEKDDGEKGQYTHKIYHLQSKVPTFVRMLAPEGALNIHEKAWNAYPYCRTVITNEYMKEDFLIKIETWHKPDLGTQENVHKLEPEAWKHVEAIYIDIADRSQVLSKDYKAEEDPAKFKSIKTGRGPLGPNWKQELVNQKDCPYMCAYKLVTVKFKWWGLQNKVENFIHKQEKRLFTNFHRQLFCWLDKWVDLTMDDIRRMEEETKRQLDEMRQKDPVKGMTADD

[7] = target: T2, rat Kv4.2 α-subunit; assay: cell-based or functional assay

T4 sequence (P50516 348-617 limits assumed): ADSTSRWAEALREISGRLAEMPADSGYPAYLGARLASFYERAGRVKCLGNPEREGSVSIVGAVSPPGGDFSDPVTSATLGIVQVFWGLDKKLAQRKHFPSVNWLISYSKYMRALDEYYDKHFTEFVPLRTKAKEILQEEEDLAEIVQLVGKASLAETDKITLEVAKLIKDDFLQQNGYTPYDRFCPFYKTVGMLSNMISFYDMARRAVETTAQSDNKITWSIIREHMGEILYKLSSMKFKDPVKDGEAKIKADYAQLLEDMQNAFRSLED

**Q.** Does B1 bind [1]?
**A.** Result: no binding

**Q.** Does B2 bind [2]?
**A.** Result: no binding

**Q.** Does B3 bind [1]?
**A.** Result: no binding

**Q.** Does B4 bind [3]?
**A.** Result: binds

**Q.** Does B5 bind [1]?
**A.** Result: no binding

**Q.** Does B6 bind [1]?
**A.** Result: no binding

**Q.** Does B7 bind [4]?
**A.** Result: no binding

**Q.** Does B7 bind [5]?
**A.** Result: no binding

**Q.** Does B7 bind [6]?
**A.** Result: no binding

**Q.** Which results are given for B8?
**A.** Kv4.2 current density in CHO cells, fold increase with coexpression of KChIP1 [7]: 12 fold; amplitude of the Kv4.2 current in CHO cells, fold increase in the presence of KChIP1 [7]: ~7.5 fold; binding result [2]: no binding

**Q.** Does B9 bind [2]?
**A.** Result: no binding
